# In article PMC2188490:
# Like-named read-outs stand apart in the source and are kept apart here.
# Tests used:
# Experiment in all cases: kinetic titration of prothrombinase activity
# [1] = molecular target: factor V/Va (mixture of nonactivated and activated factor V) purified from rabbit plasma (rabbit)
# [2] = molecular target: high-affinity factor Xa receptor on cultured rabbit alveolar macrophages (rabbit (endogenous in alveolar macrophages))
# [3] = molecular target: factor V/Va (mixture of nonactivated and activated factor V) purified from rabbit plasma (rabbit); remark: listed apart in the source
substance,measurement,setting,value
factor Xa (enzyme),Kd,[1],0.603 nM
same,Kd,[2],0.211 nM
same,Kd,[3],0.821 nM
